Reduction of IL-12/IL-18-induced IFNγ production in human PBMC cultures by IL-18BP (24 h), reduction of IL-12/IL-18-induced IL-6 release in human PBMC cultures by IL-18BP (24 h) and Kd data for 2 substances are collected here from publication PMC8018910.

Experiment [1] addresses Human IL-18 (human) (UniProt Q14116).
Experiment [2] has the same target. Conditions: cited from earlier work.

Chain of Human IL-18 (human) (Q14116 37-193): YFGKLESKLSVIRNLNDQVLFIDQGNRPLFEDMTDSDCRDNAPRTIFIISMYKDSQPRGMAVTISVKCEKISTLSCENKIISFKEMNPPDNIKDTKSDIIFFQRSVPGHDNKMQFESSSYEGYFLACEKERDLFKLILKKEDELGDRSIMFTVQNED
Chain of Clinical-grade recombinant human IL-18BP (O95998 31-194): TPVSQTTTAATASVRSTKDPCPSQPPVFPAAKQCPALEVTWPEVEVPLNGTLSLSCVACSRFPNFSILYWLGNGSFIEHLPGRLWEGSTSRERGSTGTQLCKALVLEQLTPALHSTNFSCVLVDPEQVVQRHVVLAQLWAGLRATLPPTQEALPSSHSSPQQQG
Chain of IL-18BP (O95998 31-194): as above

“Clinical-grade recombinant human IL-18BP (from UniProt O95998 31-194) (natural protein)”: in experiment [1], the reduction of IL-12/IL-18-induced IFNγ production in human PBMC cultures by IL-18BP (24 h) came to 95% and the reduction of IL-12/IL-18-induced IL-6 release in human PBMC cultures by IL-18BP (24 h) stood at 85%.

For orientation: Kd means the equilibrium constant for the complex coming apart. As to IL-18BP (from UniProt O95998), the Kd in experiment [2] is 500 pM.
